Molecular target: p97 receptor (melanotransferrin receptor, MTf-R) on bovine brain capillary endothelial cells (BBCECs) (bovine)
Assay: cell-based or functional assay

- decrease in initial rate of [125I]-p97 transport across BBCEC monolayers with recombinant RAP (25 µg/ml): > 50%
Substance: recombinant receptor-associated protein (RAP)
